# Patent US11672792B2, “Topical formulations comprising montelukast and combinations with mussel adhesive proteins” (ENLITISA (SHANGHAI) PHARMACEUTICAL CO., LTD, priority 2017, dated 2023)
# Where “and” joins values, the source holds several entries; their conditions need not be identical. Equal entries are not always repeated.
# Experiments:
# [1] = tested on: full thickness skin wounds; assay: Acute Wound Model (Example 6); type: in vivo, C57BL/6 mice
# Experimental: 6-8 weeks old male C57BL/6 mice were supplied by Changzhou Cvens Experimental Animal Co. Ltd. Prior to any experiments being conducted, mice were housed under standardized conditions (at a constant temperature or 22±2° C., with alternating 12 hour periods of light and darkness), and were fed on a standard mouse diet with water, for about a week. […] The hair on the back was shaved by a baby hair shaver and depilated with cream. […] EMS skin biopsy punch (Electron Microscopy Sciences, P.O. […] Full thickness skin was removed and the depth reached the fascia. The wounds left open without suture. […] The model group was given same amount of normal saline. Recombinant Human Epidermal Growth Factor (rhEGF, Shanghai Haohai Biological Technology Co. Ltd, Shanghai, China) was purchased and prepared according to the manufacturer's instructions. Lyophilized rhEGF powder (100000 IU/vial) was dissolved in 20 mL of normal saline to make a solution with a 5000 IU/mL concentration. […] MedChemExpress, MCE China, Shanghai, China) was obtained in a powder form and was dissolved in ultrapure water to obtain solutions with concentrations as described in Table 22 (L, M and H indicate low, medium and high montelukast doses, respectively) Wounds were wrapped up with transparent dresser after drug administration. Photographs were taken for each wound every other day from Day 0. Photos were scanned into a computer, and wound areas calculated using ImageJ image analysis software (National Institutes of Health, […]). The unhealed wound area was expressed as a percentage of the original wound area: At/A0×100%, where A0 and At refer to the initial area at Day 0 and the wound area at the date of measurement (time t), respectively. […] Half of the tissue was preserved in 10% neutral buffered formalin (Nanchang […] Experimental Equipment Co., Ltd., Nanchang, […] Provence, China), and analyzed by histological embedding in paraffin wax, sectioning and staining. HE and Masson stained paraffin sections were analyzed under an optical microscope. Skin regeneration, fibroblastic proliferation, collagen regeneration scores and inflammation scores were estimated. The rest of the samples were stored at -80° C. for further analysis. […] The supernatant was collected, and the extracted protein was used for ELISA analysis using standard ELISA test kits and an ELISA reader (SH-1000 Hitachi, Japan). […] (Beijing, China).
# [2] = tested on: full thickness skin wounds in diabetic mice; assay: Diabetic Wound Model (Example 7); type: in vivo, db/db mice (C57BL/KsJ-db/db); conditions: Day 6; wound tissue; rhEGF 100 IU/each, Mon 100 μg/each, once daily topically
# Experimental: A similar experiment with essentially the same protocol to that described in Example 6 above was carried out on 8 to 12 week-old male db/db mice (C57BL/KsJ-db/db, with a body weight of 35-45 g/mouse; supplied by Changzhou Cvens Experimental Animal Co. Ltd.).
# An EMS skin biopsy punch with a […] diameter was used to make wounds.
# Different drugs were administrated topically at 20 μL/wound, once daily from Day 0 to Day 18. The model group was given same amount of normal saline.
# Samples were taken on Day 6, Day 12 and Day 18 post-wound inflictions.
# Histological specimens were analyzed and skin regeneration, fibroblast proliferation, collagen regeneration scores (Masson score) and inflammation scores were estimated as follows.
# The HE and Masson stained slices were observed under an optical microscope and were scored (1, 2 or 3 points) according to the following criteria. […]
# Fibroblast proliferation was scored as the following criteria:
# Inflammation was scored as the following criteria:
# Collagen deposition score criterion for the Masson stained sample were as follows. […] No clear blue staining was given 0 points; blue fiber appearing in a scattered pattern was scored as 1 points; if more blue fiber appeared, this was scored as 2 points, and a diffuse blue colour was given 3 points.
# [3] = wound tissue, rhEGF 100 IU/wound
molecule,measurement,setting,value
"rhEGF: Recombinant Human Epidermal Growth Factor, 5000 IU/mL in normal saline (protein, UniProt P01133 23-1207, looked up, Pro-epidermal growth factor, Recombinant Human Epidermal Growth Factor, 5000 IU/mL in normal saline) Pro-epidermal growth factor: PQHWSCPEGTLAGNGNSTCVGPAPFLIFSHGNSIFRIDTEGTNYEQLVVDAGVSVIMDFHYNEKRIYWVDLERQLLQRVFLNGSRQERVCNIEKNVSGMAINWINEEVIWSNQQEGIITVTDMKGNNSHILLSALKYPANVAVDPVERFIFWSSEVAGSLYRADLDGVGVKALLETSEKITAVSLDVLDKRLFWIQYNREGSNSLICSCDYDGGSVHISKHPTQHNLFAMSLFGDRIFYSTWKMKTIWIANKHTGKDMVRINLHSSFVPLGELKVVHPLAQPKAEDDTWEPEQKLCKLRKGNCSSTVCGQDLQSHLCMCAEGYALSRDRKYCEDVNECAFWNHGCTLGCKNTPGSYYCTCPVGFVLLPDGKRCHQLVSCPRNVSECSHDCVLTSEGPLCFCPEGSVLERDGKTCSGCSSPDNGGCSQLCVPLSPVSWECDCFPGYDLQLDEKSCAASGPQPFLLFANSQDIRHMHFDGTDYGTLLSQQMGMVYALDHDPVENKIYFAHTALKWIERANMDGSQRERLIEEGVDVPEGLAVDWIGRRFYWTDRGKSLIGRSDLNGKRSKIITKENISQPRGIAVHPMAKRLFWTDTGINPRIESSSLQGLGRLVIASSDLIWPSGITIDFLTDKLYWCDAKQSVIEMANLDGSKRRRLTQNDVGHPFAVAVFEDYVWFSDWAMPSVMRVNKRTGKDRVRLQGSMLKPSSLVVVHPLAKPGADPCLYQNGGCEHICKKRLGTAWCSCREGFMKASDGKTCLALDGHQLLAGGEVDLKNQVTPLDILSKTRVSEDNITESQHMLVAEIMVSDQDDCAPVGCSMYARCISEGEDATCQCLKGFAGDGKLCSDIDECEMGVPVCPPASSKCINTEGGYVCRCSEGYQGDGIHCLDIDECQLGEHSCGENASCTNTEGGYTCMCAGRLSEPGLICPDSTPPPHLREDDHHYSVRNSDSECPLSHDGYCLHDGVCMYIEALDKYACNCVVGYIGERCQYRDLKWWELRHAGHGQQQKVIVVAVCVVVLVMLLLLSLWGAHYYRTQKLLSKNPKNPYEESSRDVRSRRPADTEDGMSSCPQPWFVVIKEHQDLKNGGQPVAGEDGQAADGSMQPTSWRQEPQLCGMGTEQGCWIPVSSDKGSCPQVMERSFHMPSYGTQTLEGGVEKPHSLLSANPLWQQRALDPPHQMELTQ",remaining wound area versus the initial wound,"[1]; Day 2, rhEGF 100 IU/wound once daily topically",85.73 ± 10.29%
same,remaining wound area versus the initial wound,"[1]; Day 4, rhEGF 100 IU/wound",68.15 ± 16.47%
same,remaining wound area versus the initial wound,"[1]; Day 6, rhEGF 100 IU/wound",30.85 ± 1.87%
same,remaining wound area versus the initial wound,"[1]; Day 8, rhEGF 100 IU/wound",16.93 ± 4.03%
same,remaining wound area versus the initial wound,"[1]; Day 12, rhEGF 100 IU/wound",5.02 ± 3.03%
same,"Hyp content (μg/mg tissue weight), single animals",[1]; [3],6.54 μg/mg tissue weight and 4.89 μg/mg tissue weight and 5.39 μg/mg tissue weight and 5.45 μg/mg tissue weight
same,"Hyp content, Mean (n = 4)",[1]; [3],5.57 μg/mg tissue weight
same,"VEGF content, Mean",[2],4.55 pg/g
